T1: BoNT/C1 holotoxin (Clostridium botulinum, UniProt P18640 2-1291)
T1 sequence: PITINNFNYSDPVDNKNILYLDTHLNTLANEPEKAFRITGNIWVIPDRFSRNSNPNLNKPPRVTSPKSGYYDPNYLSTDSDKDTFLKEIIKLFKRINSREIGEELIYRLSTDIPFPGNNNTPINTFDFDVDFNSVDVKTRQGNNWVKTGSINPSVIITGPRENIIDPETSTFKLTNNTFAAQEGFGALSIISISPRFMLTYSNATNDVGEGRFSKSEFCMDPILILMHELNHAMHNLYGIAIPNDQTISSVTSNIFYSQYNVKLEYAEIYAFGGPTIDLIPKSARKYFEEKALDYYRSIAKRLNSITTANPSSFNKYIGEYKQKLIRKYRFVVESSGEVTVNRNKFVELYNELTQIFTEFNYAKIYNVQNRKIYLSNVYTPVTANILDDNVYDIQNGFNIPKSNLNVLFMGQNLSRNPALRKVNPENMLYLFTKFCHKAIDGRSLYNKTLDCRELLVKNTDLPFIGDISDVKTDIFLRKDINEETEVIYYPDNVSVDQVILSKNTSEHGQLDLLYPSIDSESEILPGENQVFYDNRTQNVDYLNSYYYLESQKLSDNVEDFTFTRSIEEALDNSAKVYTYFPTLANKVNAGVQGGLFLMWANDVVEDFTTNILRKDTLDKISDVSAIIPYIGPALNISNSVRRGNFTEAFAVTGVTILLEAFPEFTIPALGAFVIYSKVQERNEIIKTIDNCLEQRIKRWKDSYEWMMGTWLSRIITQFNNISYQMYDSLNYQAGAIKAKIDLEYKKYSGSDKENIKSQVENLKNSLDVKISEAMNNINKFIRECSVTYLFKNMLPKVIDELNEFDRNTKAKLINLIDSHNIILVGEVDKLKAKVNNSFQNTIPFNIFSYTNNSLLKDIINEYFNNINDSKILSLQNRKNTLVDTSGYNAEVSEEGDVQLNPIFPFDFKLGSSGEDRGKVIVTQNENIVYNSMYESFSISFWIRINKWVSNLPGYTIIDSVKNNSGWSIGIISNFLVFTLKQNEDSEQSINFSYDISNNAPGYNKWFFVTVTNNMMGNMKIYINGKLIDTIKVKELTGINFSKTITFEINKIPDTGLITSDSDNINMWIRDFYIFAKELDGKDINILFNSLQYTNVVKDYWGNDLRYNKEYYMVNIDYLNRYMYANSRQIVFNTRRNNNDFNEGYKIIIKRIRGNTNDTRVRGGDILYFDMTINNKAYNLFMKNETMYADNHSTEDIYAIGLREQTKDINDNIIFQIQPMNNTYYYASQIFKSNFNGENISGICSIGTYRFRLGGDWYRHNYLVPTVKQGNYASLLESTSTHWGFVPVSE

T2: BoNT/D (Clostridium botulinum, UniProt P19321 2-1276)
T2 sequence: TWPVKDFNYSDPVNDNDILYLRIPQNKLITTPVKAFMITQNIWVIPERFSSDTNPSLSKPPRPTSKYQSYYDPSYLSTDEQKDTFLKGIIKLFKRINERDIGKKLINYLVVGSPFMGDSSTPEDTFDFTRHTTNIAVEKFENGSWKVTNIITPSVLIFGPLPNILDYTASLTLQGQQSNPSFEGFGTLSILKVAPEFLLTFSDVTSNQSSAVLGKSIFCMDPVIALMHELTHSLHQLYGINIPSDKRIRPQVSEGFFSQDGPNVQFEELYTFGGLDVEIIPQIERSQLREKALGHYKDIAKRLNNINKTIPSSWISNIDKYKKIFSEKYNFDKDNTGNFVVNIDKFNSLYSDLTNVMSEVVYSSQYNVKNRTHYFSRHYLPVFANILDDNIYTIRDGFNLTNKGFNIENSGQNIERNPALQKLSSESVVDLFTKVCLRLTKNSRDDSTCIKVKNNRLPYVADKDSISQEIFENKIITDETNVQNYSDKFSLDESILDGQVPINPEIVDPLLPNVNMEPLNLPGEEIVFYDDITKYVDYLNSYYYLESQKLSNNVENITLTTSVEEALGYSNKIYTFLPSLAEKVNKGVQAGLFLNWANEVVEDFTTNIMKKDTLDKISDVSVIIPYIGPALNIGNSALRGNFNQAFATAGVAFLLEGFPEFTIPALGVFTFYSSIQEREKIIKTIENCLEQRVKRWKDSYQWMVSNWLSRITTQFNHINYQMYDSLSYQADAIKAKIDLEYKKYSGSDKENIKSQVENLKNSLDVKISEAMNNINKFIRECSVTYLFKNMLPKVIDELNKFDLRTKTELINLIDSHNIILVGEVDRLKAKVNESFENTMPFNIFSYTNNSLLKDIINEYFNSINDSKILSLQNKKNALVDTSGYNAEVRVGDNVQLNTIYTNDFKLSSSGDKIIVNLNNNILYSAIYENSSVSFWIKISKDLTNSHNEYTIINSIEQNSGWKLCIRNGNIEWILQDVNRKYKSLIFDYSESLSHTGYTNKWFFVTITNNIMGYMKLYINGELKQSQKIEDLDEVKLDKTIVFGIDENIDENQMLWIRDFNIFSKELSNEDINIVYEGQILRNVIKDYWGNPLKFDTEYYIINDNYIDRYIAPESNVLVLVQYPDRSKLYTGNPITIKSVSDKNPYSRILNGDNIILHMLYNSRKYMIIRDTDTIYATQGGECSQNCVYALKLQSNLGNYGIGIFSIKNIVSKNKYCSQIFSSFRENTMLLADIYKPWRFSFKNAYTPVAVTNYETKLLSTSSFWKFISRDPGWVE

B1: 4C2 scFv (scFv, V domains shown)
VH: EVQLVQSGGNLVQPGGSLRLSCTASGFIFSNHWMQWVRQIPGKGLMWVSRINDSGRSTSYAGFVKGRFTMSRDNAKNTLFLQMNSLTAEDTGVYYCVRETWEVLGHLGYEVLDHWGLGTLVTVSS
VL: DIVMTQSPSSLSASVGDRVTITCRASQGISSYLAWYQQKPGKAPKLLIYAASTLQSGVPSRFSGSGSGTEFTLTISSLQPEDFATYYCQQLNSYPRTFGQGTKVDIK
notes: human
B2: 1C8 scFv (scFv, V domains shown)
VH: QVQLQQSGAEVKKPGASVKVSCKASAFTFNSNYIHWVRLAPGQGPEWMGIINPDGGRTTYAQKFQGRITMTTDTSTYAVYMELSSLRSEDTAVYYCARGATNIPYGMSVWGQGTTVTVSS
VL: DIVMTQSPSSLSASVGDRVTITCRASQAIRNDLGWYQQEPGKAPKLLIYAASTLQSGVPSRFSGRGSGTDFTLTISSLQPEDFATYYCLQHNSYPLTFGGGTKVDIK
notes: human
B3: 4C10 scFv (scFv, V domains shown)
VH: QVQLVESGGGAVQPGESLRLSCAASGFTFSGFDMHWVRQSPGRGLEWVARISHDGSMADYADSLRGRFTISRDNPKNTLYLHMNSLRVEDTALYYCAKDRWRSGSYPAFEKWGQGTMVTVSS
VL: QSVPTQPASVSGSPGQSITISCTGTSSDVGAYNYVSWYQQHPGKAPKLMIYDVSDRPSGVSNRFSGSKSGNTASLTISGLQAEDEADYYCSSYTSSSTYVFGTGTKLTVL
notes: human
B4: 1C2 scFv (scFv, V domains shown)
VH: QVQLQQSGAEVRKSGASVKVSCKTSGYTFTTYYIHWVRQAPGQGLEWMGMIDPRGGSASYAQRFQGRVTMTRDTSTTTVFLALNSLESNDTAVYYCARGGLPYQQLPLWGQGTLVTVSS
VL: not shown
notes: human
B5: 87C1 scFv (scFv, V domains shown)
VH: QVQLQQSGGGVVQPGRSLRLSCAGSGFTLSTYGMHWVRQAPGKGLEWVAVISNDGSKEYYADSVKGRFAISRDNSKNTLSLQMNGLRAEDTAIYYCAKAIKSYSTIGGACNLWGQGTMVTVSS
VL: DIVMTQSPSFLSASVGDRVTITCRASQSISSYLNWYQQKPGKAPKLLIYAASSLQSGVPSRFSGSRSGTYFTLTISSLQPEDFATYYCQQSYITWTFGQGTRLEIK
notes: human
B6: 1C1 scFv (scFv, V domains shown)
VH: QVQLQESGSGLVKPSQSLSLTCAVSGGSISSGDYSWSWIRQPPGEGLEWIGYIFPRGSTYYNPSLRSRVTMSVDRSKNQFSLSLNSVTAADTAVYYCARTKMGAAEGVFDYWGQGTLVTVSS
VL: DIVMTQSPSTLSASVGDRVTITCRASQSVSTWLAWYQQKPGKAPNLLISEASNLESGVPSRFSGSGSGTEFTLTISSLQPDDFAIYYCQQYNSYVWTFGQGTKLEIK
notes: human
B7: 1C1.1 scFv (scFv, V domains shown)
VH: B6 VH
VL: EIVLTQSPSSLPASVGDRVTITCRASQSIGTYLNWYQHKPGSAPKLLINAASSLQSGVPSRFSGSGSGTDFTLTISSLQPDDFATYYCQQYNSYTWTFGQGTKVGIK
notes: human
B8: 8DC15 scFv (scFv, V domains shown)
VH: QVQLQESGPGLLKPSQTLSLTCSVSGGSMITGGYYWTWVRQLPGKGLEWIGHVYYTGKTYYNPSLNGRFTIAIDTSKNQFSLNLNSVTATDTAVFYCARAIWGGWYFDLWGQGTLVTVSS
VL: DIQMTQSPSSLSASVGDRITITCRASRDIRDDLAWYQQKPGKAPKLLIYAASSLQSGVPSRFSGSGSGTEFTLTISSLQPEDFATYYCQQANSFPLTFGGGTKVDIK
notes: human

Target: T1, BoNT/C1 holotoxin
Experiment: yeast scFv FACS

**Q.** For B1, which Kd is on record?
**A.** 190 pM

**Q.** How did the Kd turn out when B2 was run?
**A.** 42000 pM

**Q.** For B3, which Kd is on record?
**A.** 390 pM

**Q.** How did the Kd turn out when B4 was run?
**A.** 24000 pM

**Q.** For B5, which Kd is on record?
**A.** 2000 pM

**Q.** How did the Kd turn out when B6 was run?
**A.** 500 pM

**Q.** B7 was tested. Which Kd did it give?
**A.** 150 pM

Target: T2, BoNT/D
Experiment: yeast scFv FACS

**Q.** Does B8 bind?
**A.** no binding (tested: ~1 µM)

**Q.** Does B4 bind?
**A.** no binding (tested: ~1 µM)

**Q.** Does B5 bind?
**A.** no binding (tested: ~1 µM)

**Q.** Does B6 bind?
**A.** no binding (tested: ~1 µM)

**Q.** Does B7 bind?
**A.** no binding (tested: ~1 µM)

From patent US20220089784A1 (University of California, published 2022)
